This is an account of results in patent US20060110777A1 (Genentech, published 2006).

Several values for one entry are separate records, joined by “and”; a condition that tells them apart may be missing. Equal entries are not always repeated. Positions of bridges follow the written chain, without caps; N, C: chain ends. No end group written: not given here.

In this experiment the target is T1, BAFF (UniProt Q9Y275 134-285, limits assumed).
T1 construct: Coated on ELISA plates at 2 ug/ml; The construct is not described; also called BLyS; TALL-1
T1 sequence (Q9Y275 134-285 limits assumed): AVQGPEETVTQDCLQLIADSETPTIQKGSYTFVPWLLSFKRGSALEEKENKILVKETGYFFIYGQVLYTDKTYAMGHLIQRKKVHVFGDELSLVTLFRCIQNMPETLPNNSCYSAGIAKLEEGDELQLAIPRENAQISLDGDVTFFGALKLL
As to the kind of experiment: competitive displacement ELISA, BAFF coated, biotinylated miniBR3 as tracer. The method, then:
FIGS. 16A-16B depict binding of BR3 variants to BAFF. (A) Competitive displacement of biotinylated miniBR3 measured by ELISA (see methods). Data are shown for BR3 extracellular domain (filled triangles), miniBR3 (open squares), and bhpBR3 (filled circles). IC₅₀ values from the fitted curves are 70 nM, 65 nM, and 15 μM, respectively. (B) HeLa cells expressing a chimeric receptor composed of the extracellular ligand-binding domain of BR3 fused to the death domain of DR4 were seeded 16 hr before treatment. BAFF (2 nM) was added to cells alone or after being preincubated with miniBR3 (3 μM), bhpBR3 (100 μM) or a control hairpin peptide with an unrelated turn sequence in the same bhp scaffold (bhpC, 100 μM) for 30 min at room temperature. Apoptosis was assessed 24 hr later. […]
Nunc Maxisorp 96-well plates were coated overnight at 4° C. with 100 μl of a 2 μg/ml solution of BAFF in carbonate buffer, pH 9.6. […] The reaction was quenched with 100 μl/well 1M H₃PO₄ and the plate read at 490 nm. IC₅₀ values were determined by a four-parameter fit of the competitive displacement ELISA signal. The concentrations of initial stock solutions of bhpBR3 were determined spectrophotometrically as described (Gill and von Hippel, (1989) Anal. Biochem. 182:319-326), while those of miniBR3 and BR3 extracellular domain were determined by quantitative amino acid analysis.
For orientation: ELISA stands for enzyme-linked immunosorbent assay.

B1: bhpBR3 (peptide)
peptide: CHWDLLVRHWVC-NH2
modifications: disulfide 1-12 (inferred)
notes: BR3 residues 26-31 (DLLVRH) embedded in the disulfide-bonded beta-hairpin (bhp) scaffold; also called the 12-residue peptide; turn peptide bhpBR3
B1: the IC50 (as a rule, the midpoint of a concentration-inhibition curve) amounted to 15000 nM. This counts as double-digit micromolar.

B2: miniBR3 (peptide)
peptide: TPCVPAECFDLLVRHCVACGLLRTPR-NH2
modifications: disulfide 3-16, 8-19
notes: Synthetic peptide with the 1:3, 2:4 disulfide-bonding pattern; also called 26-residue miniBR3 peptide; the larger core domain
As for B2, the IC50 was 65 nM and ~70 nM.
